Values quoted from earlier work as cited in publication PMC8573040.

Columns and labels:
Im7 (Escherichia coli) = Im7 (Escherichia coli) (UniProt Q03708)
[1] = biological target: MBP (unfolded) (Escherichia coli) [MBP: P0AEX9]
[2] = biological target: PhoA (unfolded) (Escherichia coli) [phosphatase: P00634]

Sequence of UniProt Q03708 (Q03708 whole entry): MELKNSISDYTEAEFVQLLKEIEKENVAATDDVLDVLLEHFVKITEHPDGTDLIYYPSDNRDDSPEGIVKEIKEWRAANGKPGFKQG

Kd [1] [nM]	Kd [2] [nM]	Substance	Kd (Im7 (Escherichia coli)) [nM]
–	–	Spy (from UniProt P77754)	2000
50	500	SecB (from UniProt P0AG86)	–
